Patent US20250296992A1 (Genmab, published 2025)

Assays:
[1] = target: T1, human SLITRK6 extracellular domain linked to his tag (human, UniProt Q9H5Y7 27-608); assay: ELISA, coated antigen
T1 construct: extracellular domain; also called huSLITRK6; Hu SLITRK6; not shown: his tag

[2] = target: T2, cynomolgus monkey SLITRK6 extracellular domain linked to his tag (cynomolgus monkey, UniProt G7PVK4 27-608); assay: ELISA, coated antigen
T2 construct: extracellular domain; also called cynoSLITRK6; Cyno SLITRK6; not shown: his tag

[3] = target: T3, rat SLITRK6 (rat, UniProt D3ZP44 27-607); assay: ELISA, coated antigen
T3 construct: extracellular domain; not shown: his tag

[4] = target: T4, human SLITRK6 on cells (human, UniProt Q9H5Y7 27-841); assay: flow cytometry on RT4 cells
T4 construct: whole, on cells
Description: (§1) The binding activity of mAbs was evaluated by flow cytometer (Beckman, Cytoflex). Specifically, cells were incubated with 50 μL of mAbs or ADCs in series dilutions in PBS containing 1% BSA at 4° C. for 30 minutes. The cells were washed twice with PBS containing 1% BSA, stained with PE-conjugated anti human Fc in PBS containing 1% BSA and then incubated at 4° C. for 20 min. After that the cells were washed twice with PBS and analyzed by a flow cytometer.

[5] = target: T4, human SLITRK6 on cells; assay: flow cytometry on RT4 cells; remark: listed apart in the source
Description: (§2) The binding activity of mAbs and ADCs was evaluated by flow cytometer (Beckman, Cytoflex). Specifically, cells were incubated with 50 μL of mAbs or ADCs in series dilutions in PBS containing 1% BSA at 4° C. for 30 min. The cells were washed twice with PBS containing 1% BSA, stained with PE-conjugated anti human Fc in PBS containing 1% BSA and then incubated at 4° C. for 20 min. After that the cells were washed twice with PBS and analyzed by a flow cytometer.

[6] = target: T4, human SLITRK6 on cells; assay: flow cytometry on SW780 cells
Description: as §1

[7] = target: T4, human SLITRK6 on cells; assay: flow cytometry on SW780 cells; remark: listed apart in the source
Description: as §2

[8] = target: T4, human SLITRK6 on cells; assay: flow cytometry on CHP-212 cells
Description: as §1

[9] = target: T4, human SLITRK6 on cells; assay: flow cytometry on CHP-212 cells; remark: listed apart in the source
Description: as §2

[10] = target: T4, human SLITRK6 on cells; assay: flow cytometry on RT112/84 cells
Description: as §1

[11] = target: T4, human SLITRK6 on cells; assay: flow cytometry on 293F-SLITRK6-C9 cells
Description: as §2

[12] = target: T4, human SLITRK6 on cells; assay: flow cytometry on 293F-huSLITRK6-C9 cells
Description: The binding activity of mAbs was evaluated by flow cytometer (Beckman, Cytoflex). Specifically, cells were incubated with 50 μL of mAbs or ADCs in series dilutions in PBS containing 1% BSA at 4° C. for 30 min. The cells were washed twice with PBS containing 1% BSA, stained with PE-conjugated anti human Fc in PBS containing 1% BSA and then incubated at 4° C. for 20 min. After that the cells were washed twice with PBS and analyzed by a flow cytometer.

[13] = target: T4, human SLITRK6 on cells; assay: flow cytometry on RT4 cells, PE-conjugated anti-human Fc
Description: (§3) Specifically, cells were incubated with 50 μL of mAbs or ADCs in series dilutions in PBS containing 1% BSA at 4° C. for 30 min. The cells were washed twice with PBS containing 1% BSA, stained with PE-conjugated anti human Fc in PBS containing 1% BSA and then incubated at 4° C. for 20 min. After that the cells were washed twice with PBS and analyzed by a flow cytometer.

[14] = target: T4, human SLITRK6 on cells; assay: as above; remark: listed apart in the source
Description: as §2

[15] = target: T4, human SLITRK6 on cells; assay: flow cytometry on SW780 cells, PE-conjugated anti-human Fc
Description: as §3

[16] = target: T4, human SLITRK6 on cells; assay: as above; remark: listed apart in the source
Description: as §2

[17] = target: T1, human SLITRK6 extracellular domain …; assay: BLI; antigen ECD-his on anti-his tips, antibody as analyte; 1:1 fit;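 further: antibody at several concentrations, 180 s association then 300 s dissociation in Tris buffer at pH 6 or 7.5, rate constants from global fitting, KD computed as koff/kon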
Description: (§4) Binding kinetic of antibody-antigen was characterized by the bio-layer interferometry (BLI). 100 nM of SLITRK6′ extracellular domain linked to his tag was immobilized on anti-his biosensor tips (Fortebio). The sensors were rinsed with the buffer (50 mM Tris-AcOH, pH 6 or 7.5, 0.05% v/v surfactant P20) for 10 min to remove the unbound molecules, then dipped in the antibody solutions at different concentrations for 180 seconds and interspersed by a rinsing step in the buffer solution for 300 seconds. Binding affinity was calculated using ForteBio Data Acquisition 6.3 software (ForteBio) and was derived by fitting the kinetic data to a 1:1 Langmuir binding model utilizing global fitting algorithms. The dissociation or association equilibrium constant KD was calculated from the binding rate constants as KD=koff/kₒₙ(where koff and kₒₙ represent the dissociation kinetic constant and the association kinetic constant, respectively).

[18] = target: T2, cynomolgus monkey SLITRK6 extracellular …; assay: as above
Description: as §4

[19] = target: T4, human SLITRK6 on cells; assay: flow cytometry on CHP-212 cells, PE-conjugated anti-human Fc
Description: as §3

[20] = target: T5, mouse SLITRK6 (mouse, UniProt Q8C110 23-609); assay: BLI; antigen-his on anti-his tips, antibody or ADC as analyte; 1:1 fit
T5 construct: extracellular domain; also called Mu SLITRK6; not shown: his tag
T5 sequence (Q8C110 23-609): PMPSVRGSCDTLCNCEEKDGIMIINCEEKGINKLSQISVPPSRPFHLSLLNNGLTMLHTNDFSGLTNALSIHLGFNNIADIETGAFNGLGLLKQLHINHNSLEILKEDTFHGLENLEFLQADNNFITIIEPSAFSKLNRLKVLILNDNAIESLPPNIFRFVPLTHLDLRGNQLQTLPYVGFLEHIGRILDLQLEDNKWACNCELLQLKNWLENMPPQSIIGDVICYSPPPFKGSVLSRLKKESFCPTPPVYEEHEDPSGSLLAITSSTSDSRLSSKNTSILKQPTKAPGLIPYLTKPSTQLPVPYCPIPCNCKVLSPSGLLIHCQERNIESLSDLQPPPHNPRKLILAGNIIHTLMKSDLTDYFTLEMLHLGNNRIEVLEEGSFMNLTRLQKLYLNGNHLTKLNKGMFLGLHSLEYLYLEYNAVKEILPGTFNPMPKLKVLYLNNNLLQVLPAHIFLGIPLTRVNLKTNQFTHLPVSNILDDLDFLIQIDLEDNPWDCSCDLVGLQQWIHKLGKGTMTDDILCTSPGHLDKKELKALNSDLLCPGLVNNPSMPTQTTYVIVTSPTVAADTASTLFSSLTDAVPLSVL

[21] = target: T1, human SLITRK6 extracellular domain …; assay: as above
Description: (§5) Binding kinetic of antibody-antigen was characterized by the bio-layer interferometry (BLI). 100 nM of SLITRK6′ extracellular domain linked to his tag was immobilized on anti-his biosensor tips (Fortebio). The sensors were rinsed with the buffer (50 mM Tris-AcOH, pH 6 or 7.5, 0.05% v/v surfactant P20) for 10 min to remove the unbound molecules, then dipped in the antibody solutions at different concentrations for 180 seconds and interspersed by a rinsing step in the buffer solution for 300 seconds. Binding affinity was calculated using ForteBio Data Acquisition 6.3 software (ForteBio) and was derived by fitting the kinetic data to a 1:1 Langmuir binding model utilizing global fitting algorithms. The dissociation or association equilibrium constant KD was calculated from the binding rate constants as KD=koff/kₒₙ (where koff and kₒₙ represent the dissociation kinetic constant and the association kinetic constant, respectively).

[22] = target: T2, cynomolgus monkey SLITRK6 extracellular …; assay: as above
Description: as §5

[23] = target: T3, rat SLITRK6; assay: as above
Description: as §5

[24] = target: T4, human SLITRK6 on cells; assay: flow cytometry on 293F-huSLITRK6 cells, PE-conjugated anti-human Fc
Description: as §3

[25] = target: T1, human SLITRK6 extracellular domain …; assay: BLI binning on huSLITRK6-his; Ab1 = row antibody first, then Ab2 (competitor) = phA108
Description: (§6) Epitope binning was characterized by the bio-layer interferometry (BLI). 100 nM of human SLITRK6′ extracellular domain linked to his tag was immobilized on anti-his biosensor tips (Fortebio). The sensors were rinsed with the buffer (50 mM Tris-AcOH, pH 6 or 7.5, 0.05% v/v surfactant P20) for 30 seconds to remove the unbound molecules, then dipped in the 100 nM of antibody 1 solutions for 180 seconds and interspersed by a rinsing step in the buffer solution for 300 seconds. After that, the sensors were dipped in the 100 nM of antibody 2 solutions. The epitope cluster was calculated using ForteBio Data Acquisition 6.3 software.

[26] = target: T1, human SLITRK6 extracellular domain …; assay: BLI binning on huSLITRK6-his; Ab1 = row antibody first, then Ab2 (competitor) = phA290
Description: as §6

[27] = target: T1, human SLITRK6 extracellular domain …; assay: BLI binning on huSLITRK6-his; Ab1 = row antibody first, then Ab2 (competitor) = hu1H2-03
Description: as §6

[28] = target: T1, human SLITRK6 extracellular domain …; assay: BLI binning on huSLITRK6-his; Ab1 = row antibody first, then Ab2 (competitor) = hu1H2-13
Description: as §6

[29] = target: T1, human SLITRK6 extracellular domain …; assay: BLI binning on huSLITRK6-his; Ab1 = row antibody first, then Ab2 (competitor) = hu14G1-03
Description: as §6

[30] = target: T1, human SLITRK6 extracellular domain …; assay: BLI binning on huSLITRK6-his; Ab1 = row antibody first, then Ab2 (competitor) = Sirtratumab
Description: as §6

[31] = target: T4, human SLITRK6 on cells; assay: flow cytometry on KYSE-30 cells, PE-conjugated anti-human Fc
Description: as §3

[32] = target: T4, human SLITRK6 on cells; assay: flow cytometry on SCC-4 cells
Description: as §1

Binder	EC50 [1]	EC50 [2]	EC50 [3]	EC50 [4]	EC50 [5]	EC50 [6]	EC50 [7]	EC50 [8]	EC50 [9]	EC50 [10]	EC50 [11]	EC50 [12]	EC50 (read off the curve) [13]	EC50 (read off the curve) [14]	EC50 (read off the curve) [15]	EC50 (read off the curve) [16]	Kd [17]	koff [17]	kon [17]	Kd [18]	other results
Sirtratumab (antibody, V domains shown, Prior-art benchmark antibody; also called Sirtratuzumab) VH: QVQLVESGGGVVQPGRSLRLSCAASGFTFSSYGMHWVRQAPGKGLEWVAVIWYDGSNQYYADSVKGRFTISRDNSKNTLFLQMHSLRAEDTAVYYCARGLTSGRYGMDWGQGTTVTVSS VL: DIVMTQSPLSLPVTPGEPASISCRSSQSLLLSHGFNYLDWYLQKPGQSPQLLIYLGSSRASGVPDRFSGSGSGTDFTLKISRVEAEDVGLYYCMQPLQIPWTFGQGTKVEIK	60 pM	60 pM	880 pM	200 pM	260 pM	330 pM	390 pM	210 pM	250 pM	200 pM	1410 pM	1410 pM	~200 pM	~300 pM	~200 pM	~300 pM	5000 pM	0.00416 s⁻¹	831000 M⁻¹ s⁻¹	6010 pM	koff [18]: 0.0037 s⁻¹; kon [18]: 615000 M⁻¹ s⁻¹; EC50 (read off the curve) [19]: ~100 pM; Kd [20]: 3500 pM; Kd [21]: 350 pM; Kd [22]: 1200 pM; Kd [23]: 1500 pM; EC50 (read off the curve) [24]: ~1000 pM; epitope binning signal [25]: 0.252; epitope binning signal [26]: 0.256; epitope binning signal [27]: 0.281; epitope binning signal [28]: 0.282; epitope binning signal [29]: 0.244; epitope binning signal [30]: 0.0645
AGS15E (antibody, V domains shown, drug conjugate; drug-linker and positions not given, also called ADC of Sirtratumab) VH: QVQLVESGGGVVQPGRSLRLSCAASGFTFSSYGMHWVRQAPGKGLEWVAVIWYDGSNQYYADSVKGRFTISRDNSKNTLFLQMHSLRAEDTAVYYCARGLTSGRYGMDWGQGTTVTVSS VL: DIVMTQSPLSLPVTPGEPASISCRSSQSLLLSHGFNYLDWYLQKPGQSPQLLIYLGSSRASGVPDRFSGSGSGTDFTLKISRVEAEDVGLYYCMQPLQIPWTFGQGTKVEIK	–	–	–	–	–	–	–	–	–	–	–	–	~300 pM	~300 pM	~300 pM	~200 pM	–	–	–	–	EC50 (read off the curve) [19]: ~200 pM; EC50 (read off the curve) [31]: ~500 pM; Kd [20]: 1900 pM; Kd [21]: 300 pM; Kd [22]: 870 pM; Kd [23]: 1200 pM; EC50 (read off the curve) [24]: ~1000 pM
phA290 (antibody, V domains shown, From phage display, then full-length construction; Only the variable regions are tied to the name) VH: QVQLVQSGAEVKKPGASVKVSCKASGYTFTSYYMHWVRQAPGQGLEWMGIINPSGGSTSYAQKFQGRVTMTRDTSTSTVYMELSSLRSEDTAVYYCARGFTRYFDYWGQGTLVTVSA VL: EIVMTQSPGTLSLSPGERATLSCRASQSVSKYLAWYQQRPGQAPRLLIYDASNRATGIPARFSGSGSGTDFTLTVSSLEPEDFAVYYCQQRYNWPLTFGGGTTVEIK	90 pM	60 pM	180 pM	140 pM	140 pM	270 pM	270 pM	140 pM	160 pM	80 pM	1160 pM	1160 pM	–	–	–	–	1060 pM	–	–	3140 pM	EC50 [32]: 150 pM
phA108 (antibody, V domains shown, From phage display, then full-length construction; Only the variable regions are tied to the name) VH: QVQLVQSGAEVKKPGASVKVSCTASGYIFNDYYLHWVRQAPGQGLEWVGIINPSGGSPVYAQKFQGRVTMTRDTSTNTVYMELSSLRSEDTAVYYCARGMVRGVRLFDYWGQGTLVTVSA VL: EIVLTQSPATLSLSPGERATLSCRASQSVSSYLAWYQQKPGQTPRLLIYDASNRATGVPARFSGSGSGTDFTLTISSLETEDFAVYYCQQRTNWPLTFGGGTKVEIK	50 pM	60 pM	290 pM	100 pM	120 pM	270 pM	270 pM	140 pM	140 pM	100 pM	870 pM	870 pM	–	–	–	–	1050 pM	0.000969 s⁻¹	924000 M⁻¹ s⁻¹	4690 pM	EC50 [32]: 180 pM; koff [18]: 0.00379 s⁻¹; kon [18]: 809000 M⁻¹ s⁻¹; epitope binning signal [25]: 0.0346; epitope binning signal [26]: 0.0375; epitope binning signal [27]: 0.292; epitope binning signal [28]: 0.285; epitope binning signal [29]: 0.274; epitope binning signal [30]: 0.276
